Measured values published in the supplement of paper PMC9170038.

System: MS2 coat protein
Assay: apparent KD of MS2 coat protein; designed switch direction (-1 OFF switch, 1 ON switch): 1; higher = weaker reporter binding
In short: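 Stalled E. coli RNA polymerase transcribed designed RNA switches on Illumina chips, which were then titrated with SNAP-549-labelled MS2 coat protein, doubling from 0.7 or 1.5 nM to 3 µM. Steps lasted from 0.8–1.5 h at the lowest concentration to 10–20 min at the highest. The apparent KD is each design's median over clusters of curve-fitted normalised fluorescence.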

[1] = input ligand: microRNA oligo, concentration not stated
[2] = Eterna round: R95, input ligand: FMN 200 uM
[3] = Eterna round: R95, input ligand: microRNA oligo, concentration not stated
[4] = Eterna round: R95, input ligand: none

Row | Sequence | apparent KD of MS2 coat protein (input ligand: FMN 200 uM) [nM] | apparent KD of MS2 coat protein [1] [nM] | apparent KD of MS2 coat protein (input ligand: none) [nM] | apparent KD of MS2 coat protein [2] [nM] | apparent KD of MS2 coat protein [3] [nM] | apparent KD of MS2 coat protein [4] [nM]
1 | AUUGCUUUCGCAGGAUAUGAUGCGAAAAUUGCGUCAGAAGGGUGGAGUAUCUCAUUGCAACAGGACAUGAGGAUCACCCAUGUC [SameState NG1 #88] (Eterna round: R96, puzzle: Same State NG 1) | 56.7 | 140 | 248 | – | – | –
2 | AUUGCUUACGCAGGAUAUGAUGCGGAAACUGCGUCAGAAGGGUGAACAGAAUCGUUGCAAGAAGACAUGAGGAUCACCCAUGUC [SameState NG1 #96] (Eterna round: R96, puzzle: Same State NG 1) | 33.9 | 33.5 | 44.4 | – | – | –
3 | GCUUCGGCGGUAGGAUAUCUAGGAUAUGGGAAAGACUAAGUCUGUAGGUCACCUAACCCAGAAGGAGAGAAGGACAGGUUCGCC [pwkr ssNG2 2FMN + F9.35] (Eterna round: R96, puzzle: Same State NG 2) | 415 | 1.71 | 1.98 | – | – | –
4 | UUUUUGAUCCGAGGAUAUCCUUUUUUCUUACAUGAGGAUCACCCAUGUAAAGGGAUUGAGUUGUAGGAGAAGGCGGUUUUUGUU [JR_SSNG2_Sub059] (Eterna round: R96, puzzle: Same State NG 2) | 19.8 | 28.3 | 35 | – | – | –
5 | GCUCGAUGAGCGUUUUACAUGAGGAUCACCCAUGUUCGUGGGCAGGAUAUUUACGUGCGGUGUGUAGAGAAGGGCCCAUCGAGC [SameState NG3 #69] (Eterna round: R96, puzzle: Same State NG 3) | 87.1 | 247 | 529 | – | – | –
6 | ACUUAGUACAAUUUAGAUCUACAUGAGGAUCACCCAUGUACUGAGGAUAUCAGCUCGAUUAGAGCUGAGAAGGCAGAAGUACUU [SSNG3/8-A2] (Eterna round: R96, puzzle: Same State NG 3) | 45.4 | 159 | 220 | – | – | –
7 | CGUCCGGCCUGAGCUGGACGGAGGCAUGUACAUGAGGAUCACCCAUGUUCAUGUGCAGGCUUUUUGCUCGUCUUGUG [JL-shm-2.07 JL mod] (puzzle: Sensor for hsa-mir-208a) | – | – | – | 53 | 10.9 | 54.2
8 | GGAGCCGGCACCGAGGAUAUUCAUAUUAAAACAUGAGGAUCACCCAUGUAGGUCGAAAGACCUUGGGAGAAGGCGGAUCGGCUCG [Xeonanis - 30] (puzzle: Same State 2) | – | – | – | 38.3 | 518 | 803
9 | AGUCCAGCCUGAGCUGGACAAAAGCAUGUACAUGAGGAUCACCCAUGUUCAUGUACAAGCUUUUUGCAAGUCAAAAG [Mat - hsa-mir-208a - Mod of JL - 75] (puzzle: Sensor for hsa-mir-208a) | – | – | – | 337 | 25.6 | 710
10 | AAAAGCGACGUAGGAUAUCCUCUACAUGCGUAAGGAGAAGGAUGCGCAACAUGAGGAUCACCCAUGUAAAACCAGCACUACUGG [Zalaendi] (Eterna round: R96, puzzle: Same State NG 1) | 53.1 | 32.6 | 44.9 | – | – | –
11 | GCAGCCGGCACUGAGGAUAUUCAUAUUAAAACAUGAGGAUCACCCAUGUAGGCCAGAAGGCCUUGGGAGAAGGCAGGUCGGCUGG [Mat - Same State 2 - Mod of UCT - D63] (puzzle: Same State 2) | – | – | – | 20.8 | 219 | 232
